± gives the standard deviation of the averaged measurements.
Test: total protein half-life in vivo (active degradation + dilution); higher = more stable protein
[1] = E. coli NCM3722 delta-clpP delta-lon delta-hslV, growth: N-lim chemostat, doubling time 6 h
[2] = E. coli NCM3722 delta-clpP, growth: N-lim chemostat, doubling time 6 h
[3] = E. coli NCM3722 delta-hslV, growth: N-lim chemostat, doubling time 6 h
[4] = E. coli NCM3722 delta-lon, growth: N-lim chemostat, doubling time 6 h
[5] = E. coli NCM3722 delta-smpB, growth: N-lim chemostat, doubling time 6 h
[6] = wild type E. coli NCM3722, growth: C-lim chemostat, doubling time 6 h
[7] = wild type E. coli NCM3722, growth: C-lim chemostat, doubling time 12 h
[8] = wild type E. coli NCM3722, growth: N-lim chemostat, doubling time 6 h
[9] = wild type E. coli NCM3722, growth: N-lim chemostat, doubling time 12 h
[10] = wild type E. coli NCM3722, growth: P-lim chemostat, doubling time 6 h
[11] = wild type E. coli NCM3722, growth: P-lim chemostat, doubling time 12 h
[12] = wild type E. coli NCM3722, growth: C-lim chemostat, doubling time 3 h

Sequence	total protein half-life in vivo [1]	total protein half-life in vivo [2]	total protein half-life in vivo [3]	total protein half-life in vivo [4]	total protein half-life in vivo [5]	total protein half-life in vivo [6]	total protein half-life in vivo [7]	total protein half-life in vivo [8]	total protein half-life in vivo [9]	total protein half-life in vivo [10]	total protein half-life in vivo [11]	total protein half-life in vivo [12]
MAITGIFFGSDTGNTENIAKMIQKQLGKDVADVHDIAKSSKEDLEAYDILLLGIPTWYYGEAQCDWDDFFPTLEEIDFNGKLVALFGCGDQEDYAEYFCDALGTIRDIIEPRGATIVGHWPTAGYHFEASKGLADDDHFVGLAIDEDRQPELTAERVEKWVKQISEELHLDEILNA	5.32 ± 1.2 h	5.07 ± 0.65 h	4.45 ± 0.27 h	4.59 ± 0.44 h	4.64 ± 0.75 h	5.31 ± 0.73 h	7.02 ± 3 h	4.71 ± 0.14 h	8.16 ± 0.92 h	6.33 ± 0.46 h	–	–
MAKEDNIEMQGTVLETLPNTMFRVELENGHVVTAHISGKMRKNYIRILTGDKVTVELTPYDLSKGRIVFRSR	5.28 ± 0.3 h	4.92 ± 1.1 h	4.49 ± 0.57 h	4.94 ± 0.23 h	5.4 ± 0.28 h	5.34 ± 0.62 h	8.41 ± 0.61 h	4.58 h	8.98 ± 0.12 h	4.93 ± 1.6 h	9.85 ± 0.75 h	–
MAKEFGRPQRVAQEMQKEIALILQREIKDPRLGMMTTVSGVEMSRDLAYAKVYVTFLNDKDEDAVKAGIKALQEASGFIRSLLGKAMRLRIVPELTFFYDNSLVEGMRMSNLVTSVVKHDEERRVNPDDSKED [P0A7G2]	–	4.7644 ± 0.0036 h	4.43 ± 0.063 h	5.76 ± 0.31 h	4.56 ± 0.23 h	5.38 ± 0.84 h	10.3 ± 0.93 h	4.6 ± 0.22 h	7.76 ± 0.5 h	4.66 ± 0.12 h	8.771 ± 0.013 h	2.87 ± 0.079 h
MAKEKKRGFFSWLGFGQKEQTPEKETEVQNEQPVVEEIVQAQEPVKASEQAVEEQPQAHTEAEAETFAADVVEVTEQVAESEKAQPEAEVVAQPEPVVEETPEPVAIEREELPLPEDVNAEAVSPEEWQAEAETVEIVEAAEEEAAKEEITDEELETALAAEAAEEAVMVVPPAEEEQPVEEIAQEQEKPTKEGFFARLKRSLLKTKENLGSGFISLFRGKKIDDDLFEELEEQLLIADVGVETTRKIITNLTEGASRKQLRDAEALYGLLKEEMGEILAKVDEPLNVEGKAPFVILMVGVNGVGKTTTIGKLARQFEQQGKSVMLAAGDTFRAAAVEQLQVWGQRNNIPVIAQHTGADSASVIFDAIQAAKARNIDVLIADTAGRLQNKSHLMEELKKIVRVMKKLDVEAPHEVMLTIDASTGQNAVSQAKLFHEAVGLTGITLTKLDGTAKGGVIFSVADQFGIPIRYIGVGERIEDLRPFKADDFIEALFARED	5.949 ± 0.013 h	6.16 ± 0.62 h	6.29 ± 0.82 h	5.53 ± 0.3 h	5.61 ± 0.034 h	5.835 ± 0.012 h	11.1 ± 1.8 h	5.94 ± 0.28 h	10.7 ± 0.25 h	5.64 ± 0.21 h	11.92 ± 0.0035 h	3.038 ± 0.019 h
MAKERALTLEALRVMDAIDRRGSFAAAADELGRVPSALSYTMQKLEEELDVVLFDRSGHRTKFTNVGRMLLERGRVLLEAADKLTTDAEALARGWETHLTIVTEALVPTPAFFPLIDKLAAKANTQLAIITEVLAGAWERLEQGRADIVIAPDMHFRSSSEINSRKLYTLMNVYVAAPDHPIHQEPEPLSEVTRVKYRGIAVADTARERPVLTVQLLDKQPRLTVSTIEDKRQALLAGLGVATMPYPMVEKDIAEGRLRVVSPESTSEIDIIMAWRRDSMGEAKSWCLREIPKLFNGK	5.43 ± 0.44 h	5.71 ± 0.84 h	5.26 ± 0.14 h	5.85 ± 0.25 h	5.34 ± 0.25 h	5.658 ± 0.043 h	11.2 ± 0.74 h	5.54 ± 0.4 h	10.9 ± 0.25 h	6.09 ± 0.32 h	11.5 ± 0.97 h	3.01 ± 0.2 h
MAKIKGQVKWFNESKGFGFITPADGSKDVFVHFSAIQGNGFKTLAEGQNVEFEIQDGQKGPAAVNVTAI [P0A9Y6]	4.07 ± 0.35 h	3.26 ± 0.19 h	2.88 ± 0.095 h	3.98 ± 0.54 h	2.65 ± 0.03 h	3.23 ± 0.29 h	5.61 ± 1.2 h	2.83 ± 0.21 h	3.96 ± 0.13 h	2.94 ± 0.28 h	5 ± 1.2 h	2.24 ± 0.71 h
MAKNIPFKLILEKAKDYQADMTRFLRDMVAIPSESCDEKRVVHRIKEEMEKVGFDKVEIDPMGNVLGYIGHGPRLVAMDAHIDTVGIGNIKNWDFDPYEGMETDELIGGRGTSDQEGGMASMVYAGKIIKDLGLEDEYTLLVTGTVQEEDCDGLCWQYIIEQSGIRPEFVVSTEPTDCQVYRGQRGRMEIRIDVQGVSCHGSAPERGDNAIFKMGPILGELQELSQRLGYDEFLGKGTLTVSEIFFTSPSRCAVADSCAVSIDRRLTWGETWEGALDEIRALPAVQKANAVVSMYNYDRPSWTGLVYPTECYFPTWKVEEDHFTVKALVNAYEGLFGKAPVVDKWTFSTNGVSIMGRHGIPVIGFGPGKEPEAHAPNEKTWKSHLVTCAAMYAAIPLSWLATE	–	–	3.34 ± 0.23 h	> 8 h	3.6 h	5.23 ± 1.1 h	8.78 ± 0.98 h	3.7 ± 0.69 h	6.26 ± 0.46 h	5.23 h	9.14 ± 1.7 h	2.93 ± 0.037 h
MAKNRSRRLRKKMHIDEFQELGFSVAWRFPEGTSEEQIDKTVDDFINEVIEPNKLAFDGSGYLAWEGLICMQEIGKCTEEHQAIVRKWLEERKLDEVRTSELFDVWWD	5.96 ± 0.18 h	6.44 ± 1.1 h	6.42 ± 0.59 h	6.34 ± 0.93 h	5.56 ± 0.31 h	5.41 ± 0.22 h	9.8 ± 0.27 h	5.26 h	12.6 ± 0.72 h	5.22 ± 0.22 h	11.7 ± 0.92 h	3.43 ± 0.076 h
MAKNYAALARSVIAALGGVDNISAVTHCMTRLRFVIKDDALIDSPTLKTIPGVLGVVRSDNQCQVIIGNTVSQAFQEVVSLLPGDMQPAQPVGKPKLTLRRIGAGILDALIGTMSPLIPAIIGGSMVKLLAMILEMSGVLTKGSPTLTILNVIGDGAFFFLPLMVAASAAIKFKTNMSLAIAIAGVLVHPSFIELMAKAAQGEHVEFALIPVTAVKYTYTVIPALVMTWCLSYIERWVDSITPAVTKNFLKPMLIVLIAAPLAILLIGPIGIWIGSAISALVYTIHGYLGWLSVAIMGALWPLLVMTGMHRVFTPTIIQTIAETGKEGMVMPSEIGANLSLGGSSLAVAWKTKNPELRQTALAAAASAIMAGISEPALYGVAIRLKRPLIASLISGFICGAVAGMAGLASHSMAAPGLFTSVQFFDPANPMSIVWVFAVMALAVVLSFILTLLLGFEDIPVEEAAAQARKYQSVQPTVAKEVSLN	–	–	–	–	–	–	3.55 h	–	–	–	–	1.77 ± 0.078 h
MAKQPGLDFQSAKGGLGELKRRLLFVIGALIVFRIGSFIPIPGIDAAVLAKLLEQQRGTIIEMFNMFSGGALSRASIFALGIMPYISASIIIQLLTVVHPTLAEIKKEGESGRRKISQYTRYGTLVLAIFQSIGIATGLPNMPGMQGLVINPGFAFYFTAVVSLVTGTMFLMWLGEQITERGIGNGISIIIFAGIVAGLPPAIAHTIEQARQGDLHFLVLLLVAVLVFAVTFFVVFVERGQRRIVVNYAKRQQGRRVYAAQSTHLPLKVNMAGVIPAIFASSIILFPATIASWFGGGTGWNWLTTISLYLQPGQPLYVLLYASAIIFFCFFYTALVFNPRETADNLKKSGAFVPGIRPGEQTAKYIDKVMTRLTLVGALYITFICLIPEFMRDAMKVPFYFGGTSLLIVVVVIMDFMAQVQTLMMSSQYESALKKANLKGYGR [P0AGA2]	4.966 ± 0.022 h	–	5.77 ± 1 h	4.51 ± 0.048 h	5.24 ± 1 h	5.04 ± 0.31 h	9.27 ± 3 h	4.83 ± 0.52 h	8.18 ± 0.17 h	4.94 ± 0.68 h	8.06 ± 0.49 h	3.3 ± 0.39 h
MAKSVPAIFLDRDGTINVDHGYVHEIDNFEFIDGVIDAMRELKKMGFALVVVTNQSGIARGKFTEAQFETLTEWMDWSLADRDVDLDGIYYCPHHPQGSVEEFRQVCDCRKPHPGMLLSARDYLHIDMAASYMVGDKLEDMQAAVAANVGTKVLVRTGKPITPEAENAADWVLNSLADLPQAIKKQQKPAQ	5.54 ± 0.29 h	5.269 ± 0.022 h	4.97 ± 0.51 h	5.62 ± 0.25 h	4.95 ± 0.083 h	4.782 ± 0.0071 h	13.4 ± 3.2 h	5.05 ± 0.25 h	8.7 ± 0.32 h	5.49 ± 0.68 h	11.4 ± 1.5 h	2.54 ± 0.091 h
MALHDENVVWHSHPVTVQQRELHHGHRGVVLWFTGLSGSGKSTVAGALEEALHKLGVSTYLLDGDNVRHGLCSDLGFSDADRKENIRRVGEVANLMVEAGLVVLTAFISPHRAERQMVRERVGEGRFIEVFVDTPLAICEARDPKGLYKKARAGELRNFTGIDSVYEAPESAEIHLNGEQLVTNLVQQLLDLLRQNDIIRS [P0A6J1]	4.97 ± 0.48 h	3.79 ± 0.44 h	2.03 ± 0.21 h	2.4 ± 0.82 h	1.72 ± 0.06 h	4.8 ± 3 h	–	2.41 h	2.47 h	2.07 h	3.52 ± 0.087 h	1.86 ± 0.13 h
MALKATIYKATVNVADLDRNQFLDASLTLARHPSETQERMMLRLLAWLKYADERLQFTRGLCADDEPEAWLRNDHLGIDLWIELGLPDERRIKKACTQAAEVALFTYNSRAAQIWWQQNQSKCVQFANLSVWYLDDEQLAKVSAFADRTMTLQATIQDGVIWLSDDKNNLEVNLTAWQQPS [P0AA97]	5.6431 ± 0.0016 h	3.9 ± 0.19 h	4.82 ± 0.38 h	5.25 ± 0.72 h	3.354 ± 0.009 h	–	8.84 ± 1.6 h	4.38 h	7.28 ± 0.26 h	4.93 ± 0.28 h	–	–
MALLNIFDIAGSALTAQSQRLNVAASNLANADSVTGPDGQPYRAKQVVFQVNAAPGAATGGVKVADVIESQAPDKLVYEPGNPLADAKGYVKMPNVDVVGEMVNTMSASRSYQANVEVLNTVKSMMLKTLTLGQ [P0ABX2]	–	> 8 h	–	–	> 8 h	0.417 h	1.79 ± 0.53 h	3.6 h	–	–	–	0.544 ± 0.33 h

Source: the supplement of paper PMC11246515
